As usually defined, the Kd is the constant that tells how readily two partners part at equilibrium. Usually koff stands for the first-order rate constant of dissociation. One may read the kon as the second-order rate constant of association. As usually defined, the EC50 is the concentration giving half of the maximal effect. For orientation: IC50 means the midpoint of a concentration-inhibition curve.

Where two headings read alike, the source gives them in different places.

Test [1] deals with T1, mutant human C5 (R885H)-his protein (Acro biosystems, Cat#CO5-H52Hx) (human, UniProt P01031 19-1676).
T1 construct: Bought protein; also called human C5 mutant; not shown: his tag
As to the kind of experiment: SPR (Biacore T200), antibody captured by anti-human IgG, C5 in flow, 1:1 fit. In general terms: Surface plasmon resonance follows binding to a sensor surface in real time, without labels.

The target in test [2] is T2, recombinant human C5-his protein (Sino Biological Inc., Cat#13416-H18H) (human, UniProt P01031 19-1676).
T2 construct: Bought protein; also called wild type human C5; not shown: his tag
As to the kind of experiment: capture ELISA: antibody captured on goat anti-human IgG Fc, biotin-labeled human C5-his 0.99 nM, streptavidin-HRP. On the technique in general: An ELISA detects its analyte on a solid surface through an enzyme-linked reagent.

The target of test [3] is T1, mutant human C5 (R885H)-his protein …. As to the kind of experiment: indirect ELISA on coated human C5 (R885H)-his (2 ug/ml), anti-human IgG Fc-HRP.
Test [4] concerns the target T2, recombinant human C5-his protein (Sino …). As to the kind of experiment: competitive ELISA: antibody pre-mixed with biotin-labeled human C5-his 0.99 nM, added to coated Eculizumab; partial inhibition only, value below the range tested.
Test [5] shares this target. The test can be described thus: SPR (Biacore T200), antibody captured by anti-human IgG, C5 in flow, 1:1 fit.
The target of test [6] is T3, cynomolgus monkey C5-his protein (Acro biosystems, Cat#CO5-C52Hx) (cynomolgus monkey, UniProt A0A2K5U1T1 19-1676).
T3 construct: Bought protein; also called Cynomolgus C5-his; cynomolgus C5; not shown: his tag
Described as above.

The target in test [7] is T3, cynomolgus monkey C5-his protein (Acro …). As to the kind of experiment: indirect ELISA on coated cynomolgus C5-his (1 ug/ml), anti-human IgG Fc-HRP.
Test [8] shares this target. The description is as above. This is another data set of the same source.
Test [9] concerns the target T1, mutant human C5 (R885H)-his protein …. The test can be described thus: indirect ELISA on coated human C5 (R885H)-his (2 ug/ml), anti-human IgG Fc-HRP. The source holds these as a separate data set.
In test [10] the target is T2, recombinant human C5-his protein (Sino …). The test can be described thus: capture ELISA: antibody captured on goat anti-human IgG Fc, biotin-labeled human C5-his 0.99 nM, streptavidin-HRP. This is another data set of the same source.
Test [11] has the same target. The test can be described thus: competitive ELISA: antibody pre-mixed with biotin-labeled human C5-his 0.99 nM, added to coated Eculizumab; partial inhibition only.

B1: A2E12G12H7 (antibody, V domains shown)
VH: QVQLVQSGAEVKKPGASVKVSCKASGYTFTGYYIHWVRQAPGQGLEWMGWINPNSGSTNSAQKFQDWVTLTRDTSISTAYMELSRLKSDDTAVYYCARRADYYGSGNFYYFDYWGQGTLVTVSS
VL: DIQMTQSPSSVSASVGDRVTISCRASQSISRWLAWYQQKPGKAPKLLIYAATSLQSGVPSRFSGSGFVRDFTLTISSLQPEDFATYYCQQANTFPLIFGGGTKVEIK
notes: Fully human antibody purified from hybridoma; not added here
As to B1, the values for the Kd in [1], in test [5] and in test [6] were 1.32 nM, 1.6 nM and 0.741 nM, respectively. The figures for the koff in test [1], in test [5] and in test [6] were 0.000408 s⁻¹, 0.000186 s⁻¹ and 0.000267 s⁻¹, respectively. The kon in [1] turned out to be 308000 M⁻¹ s⁻¹; in [5], 117000 M⁻¹ s⁻¹; in test [6], 360000 M⁻¹ s⁻¹. Besides, the EC50 in [2] was found to be 0.0418 nM; in [3], 0.0684 nM; in test [7], 0.127 nM. Besides, in [4], the half-maximal inhibitory concentration (IC50) was roughly 1.53 pM.

B2: A5G9C2C7 (antibody, V domains shown)
VH: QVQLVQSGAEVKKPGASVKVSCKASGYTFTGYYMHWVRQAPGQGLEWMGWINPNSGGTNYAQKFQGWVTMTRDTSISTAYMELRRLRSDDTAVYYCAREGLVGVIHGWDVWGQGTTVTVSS
VL: DIQMTQSPSTLSASVGDRVTITCRASQNIYNWLAWYQQKPGKAPKLLIYKASSLESGVPSRFSGSGSGTEFTLTISSLQPDDFATYYCQQYNSNSRTFGQGTKVEIK
notes: as for B1
In the case of B2, the values for the EC50 in test [8], in test [9] and in test [10] were 0.128 nM, 0.0853 nM and 0.0277 nM, respectively. Also, the results for the Kd in test [1], in [5] and in test [6] were 0.303 nM, 0.262 nM and 1.58 nM, respectively. Also, the koff was determined as 0.000153 s⁻¹ in [1], 3.47e-05 s⁻¹ in test [5] and 0.000293 s⁻¹ in test [6]. The figures for the kon in test [1], in test [5] and in test [6] were 505000 M⁻¹ s⁻¹, 133000 M⁻¹ s⁻¹ and 185000 M⁻¹ s⁻¹, respectively. Also, in [11], the IC50 is roughly 0.256 nM.

(Values after patent US20230357438A1 (BIOSION, published 2023).)
